Data set [1] concerns the target cyclohexylamine oxidase from Acinetobacter sp. YT-02 (Acinetobacter sp. YT-02). As to the kind of experiment: SEC; gel filtration on Superose 6 Increase 10/300GL; 10 mM phosphate buffer, pH 7.4, 140 mM NaCl; calibrated with apoferritin (443 kDa), alcohol dehydrogenase (150 kDa), bovine albumin (66 kDa), carbonic anhydrase (29 kDa).
Substrate in data set [2]: NC1CCCCC1
As to the kind of experiment: purified protein. In kind it is biochemical, Acinetobacter sp. YT-02. The conditions noted are these: 50 °C, pH 7.0 sodium phosphate.

A word on the stoichiometry N: it is the number of molecules, sites or subunits per partner or assembly. The Km is the substrate concentration at which the rate is half of its maximum. As usually defined, the Vmax is the top rate of the reaction or transport when substrate is in excess. Broadly, the kcat is the number of substrate molecules converted per active site and unit of time at saturation. One may read the kcat/Km as the turnover number divided by the Michaelis constant.

The molecule “cyclohexylamine oxidase from Acinetobacter sp. YT-02 (enzyme)” returned a stoichiometry N in data set [1] of 2.

B1: CHAOYT–02 (Acinetobacter sp. YT-02) (protein)
chain: MSVNDNRESASYDADVIVVGAGPSGSYAAKLLHDRGISVKLVEAKDRVGGRTWSSKTEAQGGPIDFGGQWIGETHVLLPELGEELGLETVSSIKPGNDIFVFNGQVTVGEEDQAPASASWTAELTRSFELLDEAGARLGWEAPWASPAVEALDGMTVAQWLDENVSSDEVRMIHEVMVNILNGANTTEVSMAYWAYFVHQGEGIESLIGTRSGAQIAWFVGGMGQVTELIADRLGDNLHLNWPVTSIEQQDSGVVVSSGDRRLTAKYVILATPPSDASRMIFDQPLPAKRAQLQARAPMGRLAKIQVRYRDAFWQEENLSGAAFVCGDLAFWVFDGSKPSDSLATIVGFIGGKHLDLWHSFTPEEREARFIDMLVTNIGEKARDTVYYHETDWTEQPWTGGAPVTFMPTGLLSSSGSALRGSAGRIHFAGTEAAPMWSGYIEGALRAGKIAATDIIARLG
notes: full-length ORF of 460 residues, no signal peptide; pET-28b 6xHis tag and vector residues kept (53,534 Da with tag); E. coli BL21 (DE3); dimer about 91 kDa; FAD enzyme
Regarding B1, in data set [2], the Km amounted to 0.25 ± 0.02 mM, the Vmax is 4300 µM/min, the kcat worked out at 523 ± 10 s⁻¹ and the kcat/Km amounted to 2.08e+06 M⁻¹ s⁻¹.

The record behind these values is paper PMC6262902, “Characterization of a New Cyclohexylamine Oxidase From Acinetobacter sp. YT-02” (Frontiers in Microbiology, 2018).
